According to US20250361317A1 (Janssen / Centocor, published 2025):

Experiments:
[1] = target: T1, T-cell receptor with TRBV19 (Vβ17) beta chain on human T cells (human); assay: flow cytometry, percent TRBV19+ of live pan-T cells, Donor 3, 1 hour, 37 °C
T1 construct: whole, on cells; also called Vb17; TRBV19+ T cells

[2] = target: T1, T-cell receptor with TRBV19 (Vβ17) beta …; assay: flow cytometry, % TRBV19+ T cells of live human pan-T cells, 1 hour at 37 C
[3] = target: T2, EMR2W4, huEMR2 GAIN domain + GPS, D261-T540, with C-terminal Avi/6x His tag (human); assay: SPR, EMR2 arm, forced degradation study: Thermal
T2 construct: also called Human EMR2 GAIN domain protein
T2 chain: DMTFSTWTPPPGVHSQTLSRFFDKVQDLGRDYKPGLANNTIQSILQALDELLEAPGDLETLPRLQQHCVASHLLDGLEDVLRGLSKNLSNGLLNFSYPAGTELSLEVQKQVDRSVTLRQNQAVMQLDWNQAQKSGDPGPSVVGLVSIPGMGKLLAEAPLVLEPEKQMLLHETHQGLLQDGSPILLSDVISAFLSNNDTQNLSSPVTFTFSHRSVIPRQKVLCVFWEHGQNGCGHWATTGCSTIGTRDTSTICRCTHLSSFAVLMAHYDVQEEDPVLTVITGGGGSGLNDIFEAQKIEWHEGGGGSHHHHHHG

[4] = target: T3, human EMR2 (ADGRE2, CD312) on cells (human, UniProt Q9UHX3 24-823); assay: flow cytometry, median AF647 of live cells, MOLM 13 cells, 1 hour at 37 C
T3 construct: also called huEMR2 full length; Adhesion G protein-coupled receptor E2
T3 sequence: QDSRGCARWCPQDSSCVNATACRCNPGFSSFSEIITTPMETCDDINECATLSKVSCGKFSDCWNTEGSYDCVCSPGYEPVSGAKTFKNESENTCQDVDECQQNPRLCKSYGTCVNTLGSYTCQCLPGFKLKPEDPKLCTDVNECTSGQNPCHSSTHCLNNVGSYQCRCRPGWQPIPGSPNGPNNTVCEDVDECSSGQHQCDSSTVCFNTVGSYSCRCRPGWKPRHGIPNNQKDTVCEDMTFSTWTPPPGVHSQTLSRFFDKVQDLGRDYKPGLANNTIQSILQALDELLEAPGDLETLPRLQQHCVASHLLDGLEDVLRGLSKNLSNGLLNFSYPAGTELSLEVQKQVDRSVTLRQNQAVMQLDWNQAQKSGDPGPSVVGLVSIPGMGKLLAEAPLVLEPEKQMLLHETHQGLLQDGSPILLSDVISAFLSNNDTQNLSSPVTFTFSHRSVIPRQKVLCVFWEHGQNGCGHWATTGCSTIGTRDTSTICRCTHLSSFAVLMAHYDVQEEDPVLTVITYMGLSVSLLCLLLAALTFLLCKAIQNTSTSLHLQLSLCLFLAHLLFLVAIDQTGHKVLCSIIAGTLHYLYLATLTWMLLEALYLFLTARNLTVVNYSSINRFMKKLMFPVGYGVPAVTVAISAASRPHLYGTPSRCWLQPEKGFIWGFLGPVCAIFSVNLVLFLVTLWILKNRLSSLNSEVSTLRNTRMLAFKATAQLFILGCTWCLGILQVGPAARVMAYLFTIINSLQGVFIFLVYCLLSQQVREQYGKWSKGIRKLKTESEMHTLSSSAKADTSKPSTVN

[5] = target: T3, human EMR2 (ADGRE2, CD312) on cells; assay: cell-based or functional assay
[6] = target: T1, T-cell receptor with TRBV19 (Vβ17) beta …; assay: cell-based or functional assay
[7] = target: T1, T-cell receptor with TRBV19 (Vβ17) beta …; assay: flow cytometry, percent TRBV19+ of live pan-T cells, Donor 1, 1 hour, 37 °C
[8] = target: T2, EMR2W4, huEMR2 GAIN domain + GPS, …; assay: SPR protein binding (human), binding to EMR2W4
[9] = target: T1, T-cell receptor with TRBV19 (Vβ17) beta …; assay: flow cytometry, percent TRBV19+ of live pan-T cells, Donor 4, 1 hour, 37 °C
[10] = target: T3, human EMR2 (ADGRE2, CD312) on cells; assay: flow cytometry, OCI-AML2 cells, 1 hour at 37 °C; mean ± SEM
Protocol: After secondary detection with AF647-labeled material, the MFI signal was analyzed to generate an EC50 value. Curves are representative of 3 independent experiments.

T1 sequence (A0A075B6N1 22-114): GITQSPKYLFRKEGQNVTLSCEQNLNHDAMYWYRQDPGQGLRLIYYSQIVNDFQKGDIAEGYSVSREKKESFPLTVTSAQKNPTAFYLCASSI

B1: EMVBB8 (EMR2 x TRBV19 bispecific antibody) (bispecific antibody, human IgG1, kappa, L234A L235A)
heavy 1: DIQMTQSPSSLSASVGDRVTITCRSSQSLVHSNRNTYLHWYQQKPGCAPKLLIYKVSNRFSGVPSRFSGSGSGTDFTLTISSLQPEDFATYYCSQSTHVPFTFGQGTKLEIKGGGSGGSGGCPPCGGSGGQVQLQESGPGLVKPSETLSLTCTVSGYSITSGYFWNWIRQFPGKGLEWMGYISYDGSNNYNPSLKSRITISRDTSKNQFSLKLSSVTAADTAVYYCASPSPGTGYAVDYWGCGTTVTVSSEPKSSDKTHTCPPCPAPEAAGGPSVFLFPPKPKDTLMISRTPEVTCVVVSVSHEDPEVKFNWYVDGVEVHNAKTKPREEQYNSTYRVVSVLTVLHQDWLNGKEYKCKVSNKALPAPIEKTISKAKGQPREPQVYTLPPSREEMTKNQVSLWCLVKGFYPSDIAVEWESNGQPENNYKTTPPVLDSDGSFFLYSKLTVDKSRWQQGNVFSCSVMHEALHNHYTQKSLSLSPGK
heavy 2: EVQLVESGGGLVQPGGSLRLSCTASGFTFSRYSMNWVRQAPGEGLEWVSYISSSSNTIYYADSVKGRFTISRDNAKNSLYLQMNSLRDEDTAVYYCARDQGTPFDYWGQGTLVTVSSASTKGPSVFPLAPSSKSTSGGTAALGCLVKDYFPEPVTVSWNSGALTSGVHTFPAVLQSSGLYSLSSVVTVPSSSLGTQTYICNVNHKPSNTKVDKKVEPKSCDKTHTCPPCPAPEAAGGPSVFLFPPKPKDTLMISRTPEVTCVVVSVSHEDPEVKFNWYVDGVEVHNAKTKPREEQYNSTYRVVSVLTVLHQDWLNGKEYKCKVSNKALPAPIEKTISKAKGQPREPQVYTLPPSREEMTKNQVSLSCAVKGFYPSDIAVEWESNGQPENNYKTTPPVLDSDGSFFLVSKLTVDKSRWQQGNVFSCSVMHEALHNRFTQKSLSLSPGK
light: EIVLTQSPSSVSASIGDRVTITCRASQDISSWLGWYQQKPGKAPKLLIYAAISLQSGVPSRFSGSESGTDFTLTISSLQPEDFATYYCHQANSFPLTFGGGTKVEIKRTVAAPSVFIFPPSDEQLKSGTASVVCLLNNFYPREAKVQWKVDNALQSGNSQESVTEQDSKDSTYSLSSTLTLSKADYEKHKVYACEVTHQGLSSPVTKSFNRGEC
notes: also called the bispecific antibody
EC50 [1]: 6200 pM
EC50 [2]: 13100 pM
Max % TRV19+ [2]: 7.72%
Kd [3]: 220 pM
EC50 [4]: 16400 pM
Max (MFI) [4]: 400000 MFI
Cytotoxicity, EC50 (nM), 24 hours, PBMC + OCI-AML3 [5]: 0.02 nM
Cytotoxicity, EC50 (nM), 48 hours, PBMC + OCI-AML3 [5]: 0.01 nM
Cytotoxicity, EC50 (nM), 72 hours, PBMC + OCI-AML3 [5]: 0.004 nM
Cytotoxicity, EC50 (nM), 96 hours, PBMC + OCI-AML3 [5]: 0.003 nM
Cytotoxicity, EC50 (nM), 120 hours, PBMC + OCI-AML3 [5]: 0.004 nM
Pan-T-cell activation (CD25), EC50 (nM), 24 hours, PBMC + OCI-AML3 [6]: 0.02 nM
Pan-T-cell activation (CD25), EC50 (nM), 48 hours, PBMC + OCI-AML3 [6]: 0.01 nM
Pan-T-cell activation (CD25), EC50 (nM), 72 hours, PBMC + OCI-AML3 [6]: 0.01 nM
Pan-T-cell activation (CD25), EC50 (nM), 96 hours, PBMC + OCI-AML3 [6]: 0.01 nM
Pan-T-cell activation (CD25), EC50 (nM), 120 hours, PBMC + OCI-AML3 [6]: 0.01 nM
EC50 [7]: 7800 pM
Kd [8]: 193 pM
EC50 [9]: 10600 pM
EC50 [10]: 55000 pM
